We go through nine sequences from the DeepSol protein solubility set.

A short description of the data set: soluble on expression in E. coli; label from the status in PepcDB or PDB records.
As for “MSLAKSYNAGINIIPTPRSLEKREGSFKLSDGVSIGAITPEAKKIATYFAAKISLATGYDVKVEDKGEITLVLDSCATFSPEGYALDVESSRVQVTACSPRGLFYGMQSFLQLLPAEIESAGIVRDVDWEAPAANIIDSPRFAYRGIHMDPCRHFMTVEEVKKQIDVLSMFKINTIHWHLTDDQGWRIEIKQYPGLAEIGGRRIEGEGVEYGPFYYTQEEIKDIVSYAAERFITIIPELEIPGHELAAISAYPGLSCKGDPVTPRNIWGVEDIVMCPGKESVFTFLENVIDEMVALFPGTYFHIGGDECPKESWKSCPLCQKRILEEGIKPDGKHTSEQLLHTYVVERIGKYLARYDKKIIGWDEILEGKPDSTATIMSWRGDAGGISAALSGHDAIMSPGPNGLYLDYYQGDSKIEPIAIGGCSTLEKVYNYNPVPDTLVLIGKDHHIIGVQANNWSEYFYNNDIREYHMYPRSLALAEVAWTDAKRKNYVDFERRINNAYVRLDGHGVNYHIPLPEQPGGSCDHIAFTDSVSLEFTTSRPISLVYTLDGTEPGVSSEIYTSPLSFYQNGILKIASLLSSGKLSKVRTIQIEKQVLLPAVDVEGSFHGLNMEVTYGMFLNMQEFMKTGKSVDVSTDIRETGELTSFVPSTNSMRDVRQYAAVATGFIDIPENGEGHHHHHH”, the “soluble on expression in E. coli” value is listed as “not soluble”.

As for “MGSDKIHHHHHHMNTRNDNSKILEIYKMKLFGELVKAVWNDDIEDIENLPNKILNEDLKDNLNNYFSGKFDKDTMVNLIRVTMGLDVTEDTDKNLKESLHEAVNLDEVKRPIISVISDACKYCDENNKEDESCKIRSKHINCNEEDVCSACGDCVSRCKLGAISDKIEFIPMIKLLKDIKSPVYAIVAPAFVGQFGKDVSPGKLRTALKKIGFEDMIEVALAADMLTAKEAYDYYEHMKKDEEGCFITSCCCPIWVSLIQNSFPQILENVSPSVSPMIACGRAVKILNPDAKVVFIGPCMAKKKEAMLEDIKDAVDFVLTFKELQEIFDALELNPAIMDESNRVEASLSGRVYARTGGVSKAVKLSVRRIDKNIKFEEKAFEGTKECMDGLKKVLNKEIEATFIEGMGCVGGCVGGPKRILSVEEGTKNVDEYSESTNMETPFDNLNVLQFLTSLGIKRVESLGEKEEEKVKKIFSRDIKSNKKENKYKK”, the “soluble on expression in E. coli” value is listed as “not soluble”.

“MLSRKIIEESDIYLATSTRDPELFPLVIDHGEGVWIYDVDGNKYLDFTSGIGVNNLGWPSHPEVIKIGIEQMQKLAHAAANDFYNIPQLELAKKLVTYSPGNFQKKVFFSNSGTEAIEASIKVVKNTGRKYIIAFLGGFHGRTFGSISLTASKAVQRSIVGPFMPGVIHVPYPNPYRNPWHINGYENPSELVNRVIEFIEDYIFVNLVPPEEVAGIFFEPIQGEGGYVIPPKNFFAELQKLAKKYGILLVDDEVQMGLGRTGKLFAIENFNTVPDVITLAKALGGGIMPIGATIFRKDLDFKPGMHSNTFGGNALACAIGSKVIDIVKDLLPHVNEIGKIFAEELQGLADDVRGIGLAWGLEYNEKKVRDRIIGESFKRGLLLLPAGRSAIRVIPPLVISEEEAKQGLDILKKVIKVVK”: the “soluble on expression in E. coli” value is on record as “soluble”.

As for “MGSDKIHHHHHHMWTQQMIHTKRGTFELFTKGNGEPLCITHHYSQFNETGDYFADVFTSTHRVLLINLRDAGNSAKANSEKELSMIETIHDLEAIREALQLPTWHFAGHSTGGMLGLLYAITYPKSLQSLVLVGAAASNYTETPFCIYHPEHPQFHYMQHLIENLKSPHLTNEERKELSTERTKLSLHKPENYNSYFCKPIQKTMSASRMNAFSHEYPAFNLREHLPSMKTKTLIICGRYDVQCPIQYSIEMHEGIRNSIFVTFEESNHYPFLEEAAQFTSTIRTFYKLLH”, the “soluble on expression in E. coli” value is “not soluble”.

On to “MGSDKIHHHHHHMRPTQKGDYLNPMSDLFQDYSEAAARSGAYDEMFAQGHVARRSYGQVSGALRELSLADVTARADSMARTFLDRGVTFDYAGEERPFPLDIVPRVIPADEWNVLERGVAQRVKALEAFLNDVYGRMAVVTDGVIPRQLVTTSAHFHRAVHGFEPSGGVRVHVSGIDVVRDAAGTFRVLEDNVRVPSGVSYVLENRRAMAKGLPEAFGQQHIRPVEEYPRRLLSALRKTAPAGVDDPTVVVLTPGVFNSAYFEHTLLAGLMGVELVEGRDLICRGNRVYMRTTAGEQRVDVIYKRIDDDFLDPLQFRSDSMLGCPGLVNAARAGGVTIANAVGNGVADDKLVYSYVPDLIRYYLHEEPIIANVDTFRLEEKEAREHVLDRLDELVVKPVDGSGGKGLVIGPDATKDELDALRKRVIADPRGWIAQPVLQLSTVPTLSGDKFGPRHVDLRPFAVNDGDDVWVLPGGLTRVALKEGSLIVNSSQGGGSKDTWVLADSPQLPAEIIPRQSVTVREQVSVWPVESNWRDRQTEQQQ”, for which the “soluble on expression in E. coli” value was “not soluble”.

For the sequence “MSRPKAIVRHGKRDTIVALLGWAGAVDRNVEKYAGIYQKKGYTTVQFTALAAVKGWGTKDGRNVDHLASTLDSVLINPSNRLVFHVFSMNGFIALTSLDSQFPELKAIEKCDGIFMDSCPACFSFSIENMQKHALVMNHVYDQLIKNSNFVLGNFYKVYKKWETARFGYQMIMDTMSIKAGLCTIEEANPFFYLLNHPHLPPILTSIFSDNDIVCSADEINLFNECAAKKSDKKRQIMATRLKDTAHVEHFRKYPKLYLEKMDEFLQKVEKLRNGGNSKL”, the “soluble on expression in E. coli” value was “not soluble”.

As for “MIRGLRQIEPYVAGVQPAERKMIKLNTNENAYGASPKVREALANFDVDNLRKYSTLEQADLRAALANNLKVKPEQLMIANGSDDVLSIAFLAFFNNDEPVLFPDLTYGFYKVWADLYRVNYHEIPLAEDFTINTEDYLADNGGIILTNPNAPTGIYKPLNEIEKLLKANQDTVVIIDEAYISFGGQSALSLLNKYNNLVITRTFSKDAALAGLRVGYAIANEPLIAVMNAVKHSINPYSVDLLAERLATAAVEDWSYYQENAKKIQKTRAWFSEQLVKQGFDVLPSQANFVLTKPHDLATAKLFEELEARKIYVRYFPKVERIKDYLRISMGTQEEMEEVVKAIEEIRG”, the “soluble on expression in E. coli” value is “soluble”.

As to “MASDDEEDFTQLQINQNRKHKKAGGWQQIGLDHSVYKAIEKKGFNQPTPIQRKTIPCIMDGKDVVAMSRTGSGKTAAFVIPMLQKLKRRDTTGIRALMVSPTRELALQTFKVVKELGRFTGLRCACLVGGDQIEEQFSTIHENPDILLATPGRLLHVIVEMDLRLSYVQYVVFDEADRLFEMGFQDQLTETLKRIPESRQTLLFSATLPKMLVDFAKAGLTDPMLVRLDVDEKVSDKLSMVFCMCRPDEKLFALLHLCRNFCFKKLLETSLKKCKISKKKVPLLKKVRMDRENKQTVVFCATMKHVEYVVGILHRAGIDCSFVYSQLDATARKMNIQKFHEKQNNILVVTDVAARGVDIPLLDTVINLHFPPKAKLFVHRVGRVARAGRSGTAISLIANDELPYLTDLFMFLGKPINFASDKSEYKEDETLIGRVPDSIVSLETEFFHSIHDNNEDMQDLRQKATNAMMKYTRTRPPPSAESARRVKQDIRTDSVECAPHPFLKADGDKQSNDILNKISQYKSRNTIFEMNKSQKSQALAVMQAKRKAHEPRISTVTEEKRKQKEEKEQQQKSTDIAVEIAEKTVENAGEDELAEVFGTVIGSTKHTEKSEEKGGKKRKIGTGKRIDRAEQMKFEREKHYVPYMSSDHVAERHLALDTVDFARQAEGASVDIIMDDDRGMYQQKHGQRWDRRLKKYVGLSGGNEPANKKIRTEDGTWLPASYKTGKYEDWKQKQKIGFKKSDGGGDDGDNEGSGGMDRKRKWKMEKPKGGPKHSELKNKEQILKGRRKQEQLENYMEHRRQSNLKKKAEHLGRGGAGGARGGARGGARGGARGGSSRGARGGARGGGKFGNRR”, the “soluble on expression in E. coli” value was “not soluble”.

With “MAQKPLRLLACGDVEGKFDILFNRVQAIQKKSGNFDLLLCVGNFFGSTQDAEWEEYKTGIKKVPIQTYVLGANNQETVKYFQDADGCELAENITYLGRKGIFTGSSGLQIVYLSGTESLNEPVPGYSFSPKDVSSLRMMLCTTSQFKGVDILLTSPWPKCVGNFGNSSGEVDTKKCGSALVSSLATGLKPRYHFAALEKTYYERLPYRNHIILQENAQHATRFIALANVGNPEKKKYLYAFSIVPMKLMDAAELVKQPPDVTENPYRKSGQEASIGKQILAPVEESACQFFFDLNEKQGRKRSSTGRDSKSSPHPKQPRKPPQPPGPCWFCLASPEVEKHLVVNIGTHCYLALAKGGLSDDHVLILPIGHYQSVVELSAEVVEEVEKYKATLRRFFKSRGKWCVVFERNYKSHHLQLQVIPVPISCSTTDDIKDAFITQAQEQQIELLEIPEHSDIKQIAQPGAAYFYVELDTGEKLFHRIKKNFPLQFGREVLASEAILNVPDKSDWRQCQISKEDEETLARRFRKDFEPYDFTLDD”, the “soluble on expression in E. coli” value was “soluble”.
